From the Human Domainome abundance scans (Beltran et al. 2025) come the findings set out here.

B1: TOX high mobility group box family member 3, residues 256 to 323; numbered along this chain, O15405 (parent)
chain: QKPVSAYALFFRDTQAAIKGQNPNATFGEVSKIVASMWDSLGEEQKQVYKRKTEAAKKEYLKALAAYR

± gives the uncertainty stated by the source.

In this series the parent is B1. As to the kind of experiment: abundance fitness (aPCA) (normalised: wild type 0, dead -1); higher = more abundant; growth selection in yeast, the domain comes from the species named. Particulars: Homo sapiens.
Take QKPVSAYALFFRDTQAAIKGDNPNATFGEVSKIVASMWDSLGEEQKQVYKRKTEAAKKEYLKALAAYR [Q21D]: the abundance fitness was -0.126 ± 0.092.
With QKPVSAYALFFRDTQAAIKWQNPNATFGEVSKIVASMWDSLGEEQKQVYKRKTEAAKKEYLKALAAYR [G20W], the abundance fitness was -0.455 ± 0.076.
With QKPVSAYALFFRDTQAAIKYQNPNATFGEVSKIVASMWDSLGEEQKQVYKRKTEAAKKEYLKALAAYR [G20Y] the figure was -0.361 ± 0.096; with QKPVSAYALFFRDTQAAIKGQNPEATFGEVSKIVASMWDSLGEEQKQVYKRKTEAAKKEYLKALAAYR [N24E], -0.001 ± 0.07.
As for QKPVSAYALFFRDTQAAIKGQNPQATFGEVSKIVASMWDSLGEEQKQVYKRKTEAAKKEYLKALAAYR [N24Q], the abundance fitness is -0.353 ± 0.088.
With QKPVSAYALFFRDTQAAIKGQNPFATFGEVSKIVASMWDSLGEEQKQVYKRKTEAAKKEYLKALAAYR [N24F] the figure was -0.154 ± 0.074; with QKPVSAYALFFRDTQAAIKGQNPMATFGEVSKIVASMWDSLGEEQKQVYKRKTEAAKKEYLKALAAYR [N24M], -0.095 ± 0.058.
With QKPVSAYALFFRDTQAAIKGQNPHATFGEVSKIVASMWDSLGEEQKQVYKRKTEAAKKEYLKALAAYR [N24H] the figure was 0.028 ± 0.097; with QKPVSAYALFFRDTQAAIKGQNPWATFGEVSKIVASMWDSLGEEQKQVYKRKTEAAKKEYLKALAAYR [N24W], -0.509 ± 0.091; with QKPVSAYALFFRDTQAAIKGQNPVATFGEVSKIVASMWDSLGEEQKQVYKRKTEAAKKEYLKALAAYR [N24V], -0.591 ± 0.08.
With QKPVSAYALFFRDTQAAIKGQNPDATFGEVSKIVASMWDSLGEEQKQVYKRKTEAAKKEYLKALAAYR [N24D] the figure was -0.055 ± 0.091.
Consider QKPVSAYALFFRDTQAAIKGQNPPATFGEVSKIVASMWDSLGEEQKQVYKRKTEAAKKEYLKALAAYR [N24P], for which the abundance fitness was -0.848 ± 0.14.
As for QKPVSAYALFFRDTQAAIKGQNPGATFGEVSKIVASMWDSLGEEQKQVYKRKTEAAKKEYLKALAAYR [N24G], the figure is 0.096 ± 0.056.
As for QKPVSAYALFFRDTQAAIKGQNPTATFGEVSKIVASMWDSLGEEQKQVYKRKTEAAKKEYLKALAAYR [N24T], the figure is 0.026 ± 0.078; as for QKPVSAYALFFRDTQAAIKGQNPYATFGEVSKIVASMWDSLGEEQKQVYKRKTEAAKKEYLKALAAYR [N24Y], -0.563 ± 0.097; as for QKPVSAYALFFRDTQAAIKGQNPSATFGEVSKIVASMWDSLGEEQKQVYKRKTEAAKKEYLKALAAYR [N24S], 0.034 ± 0.052.
With QKPVSAYALFFRDTQAAIKGQNPRATFGEVSKIVASMWDSLGEEQKQVYKRKTEAAKKEYLKALAAYR [N24R] the figure was -0.063 ± 0.053.
As to QKPVSAYALFFRDTQAAIKGQNPLATFGEVSKIVASMWDSLGEEQKQVYKRKTEAAKKEYLKALAAYR [N24L], the abundance fitness was -0.304 ± 0.049.
With QKPVSAYALFFRDTQAAIKGQNPAATFGEVSKIVASMWDSLGEEQKQVYKRKTEAAKKEYLKALAAYR [N24A] the figure was -0.183 ± 0.066; with QKPVSAYALFFRDTQAAIKGQNPIATFGEVSKIVASMWDSLGEEQKQVYKRKTEAAKKEYLKALAAYR [N24I], -0.879 ± 0.27.
For the variant QKPVSAYALFFRDTQAAIKGQNPCATFGEVSKIVASMWDSLGEEQKQVYKRKTEAAKKEYLKALAAYR [N24C], the abundance fitness was -0.331 ± 0.086.
Regarding QKPVSAYALFFRDTQAAIKGQNPKATFGEVSKIVASMWDSLGEEQKQVYKRKTEAAKKEYLKALAAYR [N24K], the abundance fitness was determined as 0.016 ± 0.058.
As for QKPVSAYALFFRDTQAAIKGQNQNATFGEVSKIVASMWDSLGEEQKQVYKRKTEAAKKEYLKALAAYR [P23Q], the figure is -0.241 ± 0.088; as for QKPVSAYALFFRDTQAAIKGQNENATFGEVSKIVASMWDSLGEEQKQVYKRKTEAAKKEYLKALAAYR [P23E], -0.558 ± 0.11.
On to QKPVSAYALFFRDTQAAIKGQNYNATFGEVSKIVASMWDSLGEEQKQVYKRKTEAAKKEYLKALAAYR [P23Y], for which the abundance fitness was -0.948 ± 0.29.
As for QKPVSAYALFFRDTQAAIKGQNINATFGEVSKIVASMWDSLGEEQKQVYKRKTEAAKKEYLKALAAYR [P23I], the figure is -0.521 ± 0.17.
As for QKPVSAYALFFRDTQAAIKGQNCNATFGEVSKIVASMWDSLGEEQKQVYKRKTEAAKKEYLKALAAYR [P23C], the figure is -0.627 ± 0.21; as for QKPVSAYALFFRDTQAAIKGQNWNATFGEVSKIVASMWDSLGEEQKQVYKRKTEAAKKEYLKALAAYR [P23W], -0.94 ± 0.14.
As for QKPVSAYALFFRDTQAAIKGQNVNATFGEVSKIVASMWDSLGEEQKQVYKRKTEAAKKEYLKALAAYR [P23V], the figure is -0.677 ± 0.11.
On to QKPVSAYALFFRDTQAAIKGQNDNATFGEVSKIVASMWDSLGEEQKQVYKRKTEAAKKEYLKALAAYR [P23D], for which the abundance fitness was -0.922 ± 0.39.
As for QKPVSAYALFFRDTQAAIKGQNRNATFGEVSKIVASMWDSLGEEQKQVYKRKTEAAKKEYLKALAAYR [P23R], the figure is -0.454 ± 0.056; as for QKPVSAYALFFRDTQAAIKGQNNNATFGEVSKIVASMWDSLGEEQKQVYKRKTEAAKKEYLKALAAYR [P23N], -0.251 ± 0.15; as for QKPVSAYALFFRDTQAAIKGQNSNATFGEVSKIVASMWDSLGEEQKQVYKRKTEAAKKEYLKALAAYR [P23S], -0.335 ± 0.069.
With QKPVSAYALFFRDTQAAIKGQNKNATFGEVSKIVASMWDSLGEEQKQVYKRKTEAAKKEYLKALAAYR [P23K] the figure was -0.37 ± 0.11; with QKPVSAYALFFRDTQAAIKGQNFNATFGEVSKIVASMWDSLGEEQKQVYKRKTEAAKKEYLKALAAYR [P23F], -1.16 ± 0.26; with QKPVSAYALFFRDTQAAIKGQNHNATFGEVSKIVASMWDSLGEEQKQVYKRKTEAAKKEYLKALAAYR [P23H], -0.615 ± 0.14.
As for QKPVSAYALFFRDTQAAIKGQNMNATFGEVSKIVASMWDSLGEEQKQVYKRKTEAAKKEYLKALAAYR [P23M], the figure is -0.743 ± 0.13; as for QKPVSAYALFFRDTQAAIKGQNANATFGEVSKIVASMWDSLGEEQKQVYKRKTEAAKKEYLKALAAYR [P23A], -0.32 ± 0.084; as for QKPVSAYALFFRDTQAAIKGQNLNATFGEVSKIVASMWDSLGEEQKQVYKRKTEAAKKEYLKALAAYR [P23L], -0.689 ± 0.085.
As to QKPVSAYALFFRDTQAAIKGQNTNATFGEVSKIVASMWDSLGEEQKQVYKRKTEAAKKEYLKALAAYR [P23T], the abundance fitness was -0.898 ± 0.23.
